Experimental data: article PMC12059597

Tests used:
[1] = test system: CD44 (predominantly standard isoform CD44s) on human TNBC cells (Homo sapiens (Cis-Pt-R, MDA-MB-231, BT-549 cells)), P16070-12; assay: flow cytometry cell binding with siRNA knockdown; conditions: 150 nM aptamer, 2'-fluoro pyrimidines (2'F-Py) in the entire sequence, Flow cytometry: 150 nM Alexa 647-sTN58, serum-free medium, 0.1 mg/mL yeast tRNA, 0.1 mg/mL salmon sperm DNA, 10 min RT, after 30-fold excess unlabeled SCR …, scale: % reduction of binding on CD44 knockdown vs siRNA ctrl
[2] = test system: CD44 (predominantly standard isoform CD44s) on human TNBC cells (Homo sapiens (Cis-Pt-R, MDA-MB-231, BT-549 cells)), P16070-12; assay: flow cytometry cell binding; conditions: apparent Kd on whole Cis-Pt-R cells; 2'-fluoro pyrimidines (2'F-Py) in the entire sequence; Flow cytometry: 150 nM Alexa 647-sTN58, serum-free medium, 0.1 mg/mL yeast tRNA, 0.1 mg/mL salmon sperm DNA, 10 min RT, after 30-fold excess unlabeled SCR …; cited from earlier work

Sequence of CD44 (predominantly standard isoform CD44s) on human TNBC cells (Homo sapiens (Cis-Pt-R, MDA-MB-231, BT-549 cells)), P16070-12 (P16070 other isoform, or with tags, fused parts or gaps): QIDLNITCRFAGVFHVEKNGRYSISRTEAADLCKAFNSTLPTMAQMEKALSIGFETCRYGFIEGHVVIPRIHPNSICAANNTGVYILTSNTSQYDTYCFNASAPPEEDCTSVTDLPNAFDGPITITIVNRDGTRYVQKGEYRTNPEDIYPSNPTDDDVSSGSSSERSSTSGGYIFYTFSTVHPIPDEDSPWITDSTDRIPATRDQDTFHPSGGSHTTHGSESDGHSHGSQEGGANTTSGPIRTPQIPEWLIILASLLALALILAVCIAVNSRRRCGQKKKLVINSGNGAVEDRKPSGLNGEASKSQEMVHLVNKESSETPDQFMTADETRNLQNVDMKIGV

For “GGACAUAUGAUGCAACGUUGUGGUCCCGUUUGCACUUUGUUUACG [sTN58]”, the binding signal [1] is given as 55 and the Kd [2] is given as 10 nM.
